Source: the supplement of paper PMC10724198
± gives the standard deviation of the averaged measurements.

tested on: Saccharomyces cerevisiae; assay: protein stability index of tFT-peptide fusion (C-terminal peptide) (PSI (0-1 scale)); higher = more stable (slower turnover); conditions: genetic background: wild type; temperature: 30 C
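Also: PSI is a weighted mean of sequencing reads over stability bins, variants kept only with over 10 reads, mCherry proximal and sfGFP distal, peptide attached via GGGS linker.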

Compared with NKILIKKEQEEI, NKKKKTAIPPKR is higher in protein stability index: 0.64356 ± 0.00045 for the first, 0.672 ± 0.021 for the second.

NKKKPKRTGKTQ and NKKKREYKGMNF are within error of each other in protein stability index: 0.674 ± 0.025 for the first, 0.686 ± 0.044 for the second.

NKKVRSKRKEMN and NKLKEKNEKYKV are within error of each other in protein stability index: 0.637 ± 0.093 for the first, 0.659 ± 0.025 for the second.

NKNKDNNEIVKK and NKNVGLKKSEKS are within error of each other in protein stability index: 0.677 ± 0.068 for the first, 0.711 ± 0.019 for the second.

Compared with NKQNKKKKTNKK, NKQTKTQPTKKE is higher in protein stability index: 0.6792 ± 0.0036 for the first, 0.725 ± 0.015 for the second.

NKYTKSKKNNKE and NLKCRMSLKTLG are within error of each other in protein stability index: 0.761 ± 0.14 for the first, 0.705 ± 0.0018 for the second.

NMCHVYTIIPSK and NMPIGVRLLLGR are within error of each other in protein stability index: 0.632 ± 0.024 for the first, 0.652 ± 0.011 for the second.

NNMNRKKGKKKT and NNRKKKGRRRQE are within error of each other in protein stability index: 0.7027 ± 0.0018 for the first, 0.674 ± 0.042 for the second.

NPAVASPPPSSS and NPHLTLPVHPPH are within error of each other in protein stability index: 0.737 ± 0.036 for the first, 0.709 ± 0.026 for the second.

NPHRRPPRAPWP and NRDGWWVSNGCR are within error of each other in protein stability index: 0.689 ± 0.039 for the first, 0.796 ± 0.07 for the second.

NRGYRKDDKGMR and NRHQVSKTEIKL are within error of each other in protein stability index: 0.689 ± 0.042 for the first, 0.72 ± 0.016 for the second.

Compared with NRMLRAQRKNRT, NRNVLKTRKKST is lower in protein stability index: 0.689 ± 0.033 for the first, 0.593 ± 0.018 for the second.

Compared with NSDEYKVYGEKL, NSEKKKKRKEKK is higher in protein stability index: 0.661 ± 0.015 for the first, 0.731 ± 0.024 for the second.

NSKTKNCYKTGS and NSPPPPRLRSSL are within error of each other in protein stability index: 0.705 ± 0.061 for the first, 0.6937 ± 0.0018 for the second.

NSQAIKSTARQK and NSRLLPWRHELR are within error of each other in protein stability index: 0.707 ± 0.00054 for the first, 0.784 ± 0.1 for the second.

NSWCRFLRRCLV and NSWGRRAGMRGG are within error of each other in protein stability index: 0.609 ± 0.074 for the first, 0.731 ± 0.1 for the second.

NTIPRVTPDKSQ and NTLTSCRPVASK are within error of each other in protein stability index: 0.642 ± 0.093 for the first, 0.704 ± 0.037 for the second.

Going from NTQSRNKSYTER to NTRGRGQCCQGN, the protein stability index falls from 0.671 ± 0.0091 to 0.576 ± 0.053.

First: NTSLLMAWPIPP
Second: NVCSSFLAELVN
The protein stability index of the first is lower: 0.556 ± 0.032 for the first, 0.6051 ± 0.0029 for the second.

NVEFVVERIREK and NVNMGSRGQFNF are within error of each other in protein stability index: 0.6 ± 0.027 for the first, 0.628 ± 0.026 for the second.

NVRVLKCLWGVG and NVTCRPDKNELT are within error of each other in protein stability index: 0.619 ± 0.029 for the first, 0.643 ± 0.035 for the second.

NYDTIYGLHLYT and NYSINQKNRKKN are within error of each other in protein stability index: 0.73 ± 0.015 for the first, 0.737 ± 0.013 for the second.

First: PAAPGLDLRHDP
Second: PAFGCTSRPFPG
The protein stability index of the first is lower: 0.623 ± 0.037 for the first, 0.711 ± 0.031 for the second.

Going from PAGILMQDSRRA to PAPLSPTHPPLP, the protein stability index rises from 0.589 ± 0.051 to 0.71 ± 0.053.

PAPPAALPPPHP and PAPPHPPFPLLP are within error of each other in protein stability index: 0.637 ± 0.077 for the first, 0.705 ± 0.018 for the second.

First: PAPPLRVAPSRI
Second: PAPPPLLPPPPP
The protein stability index of the first is higher: 0.67 ± 0.014 for the first, 0.597 ± 0.016 for the second.

PAPPPLPSSSPP and PAPPPPLPLHPR are within error of each other in protein stability index: 0.696 ± 0.0019 for the first, 0.664 ± 0.046 for the second.

PAPPPPRRPLPP and PAPPPRPLPSPP are within error of each other in protein stability index: 0.657 ± 0.0086 for the first, 0.713 ± 0.2 for the second.

First: PAPPPSPRILLL
Second: PAPPRYPLSSSS
The protein stability index of the first is lower: 0.542 ± 0.042 for the first, 0.633 ± 0.011 for the second.

PAPRPPSPLSAP and PAPSYHPVSPTA are within error of each other in protein stability index: 0.687 ± 0.039 for the first, 0.713 ± 0.0096 for the second.

Going from PAPTRPSPPPLP to PASPPSPLLLSL, the protein stability index rises from 0.641 ± 0.013 to 0.74 ± 0.066.

First: PAVFPSLENVAL
Second: PCINGSASRRSG
The protein stability index of the first is higher: 0.732 ± 0.046 for the first, 0.6189 ± 0.0058 for the second.

PCLASHTVDSLP and PCLLTNLPILPT are within error of each other in protein stability index: 0.665 ± 0.013 for the first, 0.626 ± 0.077 for the second.

First: PCLQQCLLIFLP
Second: PCMCKRNKQYRG
The protein stability index of the first is lower: 0.566 ± 0.015 for the first, 0.649 ± 0.016 for the second.

PCPSVLPISLPH and PCRPPSILAPHP are within error of each other in protein stability index: 0.713 ± 0.06 for the first, 0.739 ± 0.0097 for the second.

First: PCSVLVWGVLLP
Second: PCYCSAPRRSWA
The protein stability index of the first is lower: 0.622 ± 0.032 for the first, 0.749 ± 0.04 for the second.

PDCLSLCFSLFP and PDCVLSDENDAG are within error of each other in protein stability index: 0.664 ± 0.0071 for the first, 0.658 ± 0.0076 for the second.

PDLGRQPGGSET and PDYNEIIEYTEG are within error of each other in protein stability index: 0.647 ± 0.052 for the first, 0.706 ± 0.033 for the second.

PEEGQNASVRPC and PERPPVARATRP are within error of each other in protein stability index: 0.694 ± 0.023 for the first, 0.718 ± 0.049 for the second.

PFFLVSPEPLSI and PFFPSSFALLRS are within error of each other in protein stability index: 0.666 ± 0.058 for the first, 0.7166 ± 0.0067 for the second.

PFFPVALPFPHL and PFFSSRLFTLSL are within error of each other in protein stability index: 0.7 ± 0.021 for the first, 0.731 ± 0.015 for the second.

PFLCCPRMSHFL and PFLPSPPPPVPI are within error of each other in protein stability index: 0.705 ± 0.013 for the first, 0.712 ± 0.045 for the second.

Going from PFPAFPPVTSPP to PFPLPPPPFHPP, the protein stability index falls from 0.85 ± 0.054 to 0.691 ± 0.014.

PFPPPTDQTAHR and PFPPTPSPAPPL are within error of each other in protein stability index: 0.728 ± 0.025 for the first, 0.7097 ± 0.0025 for the second.

PFRSFSPPPRAP and PFRSPFSSSPTF are within error of each other in protein stability index: 0.742 ± 0.17 for the first, 0.7772 ± 0.0077 for the second.

PFSLTTLFSPLL and PFSPLVPPLSFS are within error of each other in protein stability index: 0.691 ± 0.031 for the first, 0.76 ± 0.086 for the second.

PFSSFLSLFPIL and PFVSHLDRWDIR are within error of each other in protein stability index: 0.7 ± 0.0084 for the first, 0.712 ± 0.041 for the second.

PFYTKSASPSSR and PGAHPVTLTIRL are within error of each other in protein stability index: 0.669 ± 0.02 for the first, 0.647 ± 0.027 for the second.

Compared with PGHRVLKILHLR, PGITRKTKKEKK is higher in protein stability index: 0.551 ± 0.055 for the first, 0.701 ± 0.041 for the second.

Going from PGLGISHARCCF to PGLPFAPLPPPL, the protein stability index rises from 0.695 ± 0.016 to 0.733 ± 0.014.

First: PGPPPPPPPLYP
Second: PGPPSPPPPLYP
The protein stability index of the first is higher: 0.6947 ± 0.0063 for the first, 0.6783 ± 0.0056 for the second.

PGQRSRGPPGRA and PGQSSPLPPDVS are within error of each other in protein stability index: 0.737 ± 0.076 for the first, 0.653 ± 0.078 for the second.

First: PGRSATSCPFLG
Second: PGSCGATTRCLH
The protein stability index of the first is higher: 0.671 ± 0.019 for the first, 0.481 ± 0.075 for the second.

PGWPISNLGHAL and PHFLLLEDRPQT are within error of each other in protein stability index: 0.634 ± 0.077 for the first, 0.705 ± 0.02 for the second.

Going from PHGPPAHLRSRP to PHHPPAHPPTPP, the protein stability index falls from 0.737 ± 0.015 to 0.683 ± 0.023.

PHHPPPPLPCVV and PHHRRVVRPPTA are within error of each other in protein stability index: 0.632 ± 0.071 for the first, 0.704 ± 0.013 for the second.

PHNTPRPELLPP and PHPAPPPNPLVP are within error of each other in protein stability index: 0.613 ± 0.11 for the first, 0.739 ± 0.017 for the second.

PHPCSPAPPWPL and PHPHRPPRSFLL are within error of each other in protein stability index: 0.694 ± 0.028 for the first, 0.704 ± 0.1 for the second.

PHPLPSHPLPPP and PHPLSPRPPPSL are within error of each other in protein stability index: 0.738 ± 0.023 for the first, 0.746 ± 0.013 for the second.

PHPPFLFPPPCP and PHPPLPPLLPPA are within error of each other in protein stability index: 0.71 ± 0.051 for the first, 0.741 ± 0.082 for the second.

Compared with PHPPLPPPPYLL, PHPPPSLLPSAP is higher in protein stability index: 0.667 ± 0.016 for the first, 0.7612 ± 0.0037 for the second.

PHPTPSLPHSSP and PHQCLSFPPRFK are within error of each other in protein stability index: 0.827 ± 0.043 for the first, 0.744 ± 0.082 for the second.

PHSASSVSYTLY and PHSPSHTPVYPR are within error of each other in protein stability index: 0.701 ± 0.052 for the first, 0.694 ± 0.011 for the second.

PHSPSPSWFWPR and PHSSFSLAPPIP are within error of each other in protein stability index: 0.76 ± 0.058 for the first, 0.696 ± 0.01 for the second.

PHTLPPLPVSPT and PHVLAALTSYTP are within error of each other in protein stability index: 0.67 ± 0.05 for the first, 0.68783 ± 0.00064 for the second.

First: PHVSGYTVLIWF
Second: PICAWGRPRTPM
The protein stability index of the first is lower: 0.5588 ± 0.0054 for the first, 0.7639 ± 0.0017 for the second.

PIDHCFPPIPRR and PILPTSAPSDPR are within error of each other in protein stability index: 0.737 ± 0.035 for the first, 0.724 ± 0.12 for the second.

First: PIPHHLRVASPA
Second: PISPPLPRPSPR
The protein stability index of the first is lower: 0.6162 ± 0.00068 for the first, 0.696 ± 0.012 for the second.

PIVSISLGIGSS and PKAMRPKLVVFR are within error of each other in protein stability index: 0.6758 ± 0.001 for the first, 0.682 ± 0.024 for the second.

PKHQPSLLPNHH and PKKREKKKKKEK are within error of each other in protein stability index: 0.615 ± 0.026 for the first, 0.66 ± 0.073 for the second.

Compared with PKSTDVPPVRRE, PKVRQLLLTRVL is lower in protein stability index: 0.686 ± 0.088 for the first, 0.547 ± 0.022 for the second.

First: PKYYTTTDRLRV
Second: PLAALPLALSLP
The protein stability index of the first is lower: 0.622 ± 0.02 for the first, 0.6575 ± 0.0055 for the second.

PLALPLHLPLPP and PLALSPNPLSRT are within error of each other in protein stability index: 0.667 ± 0.034 for the first, 0.679 ± 0.045 for the second.

Compared with PLAPPHRPALLM, PLCLLLLNPPTL is higher in protein stability index: 0.568 ± 0.034 for the first, 0.682 ± 0.012 for the second.

PLCVPPRRLFPP and PLFFLPLPPPLF are within error of each other in protein stability index: 0.716 ± 0.072 for the first, 0.6881 ± 0.0046 for the second.

PLFLLLPALSIP and PLFRTPPPRPSP are within error of each other in protein stability index: 0.595 ± 0.029 for the first, 0.673 ± 0.14 for the second.

Going from PLFSFLPPPLPP to PLGPLLSPLSPP, the protein stability index rises from 0.697 ± 0.017 to 0.743 ± 0.014.

PLGPRFLPLVLP and PLGVPPPAPSSP are within error of each other in protein stability index: 0.682 ± 0.021 for the first, 0.6943 ± 0.0024 for the second.

PLHPPPPPPPPT and PLLHPPPRASLL are within error of each other in protein stability index: 0.69 ± 0.034 for the first, 0.792 ± 0.13 for the second.

First: PLLLPLFSSSPP
Second: PLLLYFLPPLPL
The protein stability index of the first is higher: 0.777 ± 0.085 for the first, 0.629 ± 0.039 for the second.
